Eight molecules from patent publication US20090111753A1, “Nogo-A Polypeptide Fragments, Variant Nogo Receptor-1 Polypeptides, and Uses Thereof” (Yale University, priority 2004, published 2009) can be followed below.

Residue numbers refer to the chain shown, from its start.

First the molecules themselves.
T1: AP-B4C (Homo sapiens, UniProt Q9NQC3)
T1 construct: a.a; 950-1018 (AmNg B4C); made in house; host or cells: AP ligand: HEK293T conditioned medium; NgR mutants: COS-7
T1 sequence (Q9NQC3 950-1018): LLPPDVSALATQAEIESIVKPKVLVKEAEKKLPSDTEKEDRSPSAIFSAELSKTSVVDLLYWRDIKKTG

T2: AP-Nogo66 (Homo sapiens, UniProt Q9NQC3)
T2 construct: made in house; NgR mutants: COS-7
T2 sequence (Q9NQC3 1055-1120 limits assumed): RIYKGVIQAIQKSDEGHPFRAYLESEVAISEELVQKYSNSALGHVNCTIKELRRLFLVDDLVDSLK

T3: AP-Lingo-1 (Homo sapiens, UniProt Q96FE5)
T3 construct: made in house; NgR mutants: COS-7
T3 sequence (Q96FE5 40-538 limits assumed): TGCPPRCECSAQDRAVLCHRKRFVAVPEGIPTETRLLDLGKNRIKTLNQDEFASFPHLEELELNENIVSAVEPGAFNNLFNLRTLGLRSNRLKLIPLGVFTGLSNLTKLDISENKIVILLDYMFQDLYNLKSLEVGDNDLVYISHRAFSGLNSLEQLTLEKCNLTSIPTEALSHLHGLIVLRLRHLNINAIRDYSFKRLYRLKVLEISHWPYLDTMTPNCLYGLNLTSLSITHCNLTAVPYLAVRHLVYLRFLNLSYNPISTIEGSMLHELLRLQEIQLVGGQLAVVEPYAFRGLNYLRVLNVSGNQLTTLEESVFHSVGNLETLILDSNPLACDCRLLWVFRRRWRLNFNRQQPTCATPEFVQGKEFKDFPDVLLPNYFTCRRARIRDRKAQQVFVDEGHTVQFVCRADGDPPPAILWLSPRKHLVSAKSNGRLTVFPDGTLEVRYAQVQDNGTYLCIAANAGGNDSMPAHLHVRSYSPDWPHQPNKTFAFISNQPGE

B1: WT: wild type human NgR1 expressed in COS-7 cells (protein, UniProt Q9BZR6 27-447, looked up)
Reticulon-4 receptor: CPGACVCYNEPKVTTSCPQQGLQAVPVGIPAASQRIFLHGNRISHVPAASFRACRNLTILWLHSNVLARIDAAAFTGLALLEQLDLSDNAQLRSVDPATFHGLGRLHTLHLDRCGLQELGPGLFRGLAALQYLYLQDNALQALPDDTFRDLGNLTHLFLHGNRISSVPERAFRGLHSLDRLLLHQNRVAHVHPHAFRDLGRLMTLYLFANNLSALPTEALAPLRALQYLRLNDNPWVCDCRARPLWAWLQKFRGSSSEVPCSLPQRLAGRDLKRLAANDLQGCAVATGPYHPIWTGRATDEEPLGLPKCCQPDAADKASVLEPGRPASAGNALKGRVPPGDSPPGNGSGPRHINDSPFGTLPGSAEPPLTAVRPEGSEPPGFPTSGPRRRPGCSRKNRTRSHCRLGQAGSGGGGTGDSEGS
B2: 256, 259: human NgR1 mutant, listed residues mutated to alanine (protein)
chain: CPGACVCYNEPKVTTSCPQQGLQAVPVGIPAASQRIFLHGNRISHVPAASFRACRNLTILWLHSNVLARIDAAAFTGLALLEQLDLSDNAQLRSVDPATFHGLGRLHTLHLDRCGLQELGPGLFRGLAALQYLYLQDNALQALPDDTFRDLGNLTHLFLHGNRISSVPERAFRGLHSLDRLLLHQNRVAHVHPHAFRDLGRLMTLYLFANNLSALPTEALAPLRALQYLALNANPWVCDCRARPLWAWLQKFRGSSSEVPCSLPQRLAGRDLKRLAANDLQGCAVATGPYHPIWTGRATDEEPLGLPKCCQPDAADKASVLEPGRPASAGNALKGRVPPGDSPPGNGSGPRHINDSPFGTLPGSAEPPLTAVRPEGSEPPGFPTSGPRRRPGCSRKNRTRSHCRLGQAGSGGGGTGDSEGSGALPSLTCSLTPLGLALVLWTVLGPC
B3: 78, 81: human NgR1 mutant, listed residues mutated to alanine (protein)
chain: B2 chain with R52A, R55A, A230R, A233D
B4: 202, 205, 250: human NgR1 mutant, listed residues mutated to alanine (protein)
chain: B2 chain with H176A, D179A, R224A, A230R, A233D
B5: 292, 296, 297, 300: human NgR1 mutant, listed residues mutated to alanine (protein)
chain: B2 chain with A230R, A233D, R266A, R270A, D271A, R274A
B6: 171, 172, 175, 176, 196, 199: human NgR1 mutant, listed residues mutated to alanine (protein)
chain: B2 chain with D145A, D146A, R149A, D150A, R170A, R173A, A230R, A233D
B7: 296, 297, 300: human NgR1 mutant, listed residues mutated to alanine (protein)
chain: B2 chain with A230R, A233D, R270A, D271A, R274A
B8: 171, 172, 175, 176: human NgR1 mutant, listed residues mutated to alanine (protein)
chain: B2 chain with D145A, D146A, R149A, D150A, A230R, A233D

One assay relates to AP-MAG. The experiment in a line: Binding of AP-MAG to COS-7 cells expressing NgR mutants. The note with it: AP-MAG 30 nM; level of binding compared to wild type NgR. Further details: key: ++: WT level; +: weaker than wild type; trace binding; −: no binding. The protocol: (§1) FIG. 4A. […] Binding of AP or AP fused NgR ligands to COS-7 cells expressing different NgR mutants as indicated. The concentrations of ligands applied were: AP, 30 nM; AP-Ng66, 5 nM; AP-Ng33, 10 nM; AP-B4C, 10 nM; AP-B4C66, 0.5 nM; AP-Lingo-1, 10 nM; AP-OMGP, 10 nM; AP-MAG, 30 nM. These concentrations are close to the binding Kd of these proteins to NgR so that any […] is reflected linearly in staining.
(§2) FIG. 4B. AP binding of NgR ligands to NgR mutants expressed as percentage of wild type NgR. AP after incubation with AP fused ligands, AP bound to COS-7 cells expressing NgR or NgR mutants were stained and measured.
(§3) To better define how multiple ligands bind to the NgR protein, we examined a series of Ala-substituted NgR for ligand binding activity. NgR mutagenesis was done using the Quick Change Multisite Directed Mutagenesis Kit (Stratagene catalog #200514). Human NgR1 was used as a template. Ala substitutions were generated for each of the charged residues predicted to be solvent accessible at the surface of the ligand binding domain of NgR (Barton, W. A., et al., Embo J. 22:3291-3302 (2003); He, X. L., et al., Neuron 38:177-185 (2003)). We generated mutants in which 1-8 surface residues localized within 5 A of one another were Ala-substituted. Because of the coiling nature of the LRR structure, as residues juxtaposed on the protein surface are commonly separated by approximately 25 residues in the primary structure. In addition to mutations in specific charged surface patches, other mutations were targeted to glycosylation sites and to regions predicted to be involved in ligand binding based on the NgR structure (Barton, W. A., et al., Embo J. 22:3291-3302 (2003); He, X. L., et al., Neuron 38:177-185 (2003)). In addition, a variant corresponding to a human polymorphism was examined (D259N). None of the mutations altered the Leu residues that define the LRR structure itself or the Cys residues critical in the amino and carboxyl terminal capping domains. The vast majority of such Ala surface substitution mutants were expressed as immunoreactive polypeptides with a molecular weight and an expression level indistinguishable from wild type NgR (FIG. 4C and data not shown).
(§4) This collection of 74 individual NgR mutants was interrogated for AP-Nogo-66, AP-Amino-Nogo-B4C, AP-MAG, AP-OMgp, and AP-Lingo-1 binding. AP-Nogo66, AP-MAG, AP-OMGP and AP-Lingo-1 constructs are described elsewhere (Fournier, A. E., et al., Nature 409:341-346 (2001); Liu, B. P., et al., Science 297:1190-1193 (2002); Mi, S., et al., Nat. Neurosci. 7:221-228 (2004); Wang, K. C., et al., Nature 417:941-944 (2002b)). The properties of the NgR mutants fell into one of three major categories (Table II and FIG. 5). A number of Ala substituted NgR polypeptides bound all of the ligands at wild type levels. […] In addition, a significant extent of the concave surface is dispensable for ligand binding.
(§5) Binding of Alanine substituted NgR mutants to NgR ligands were compared to wild type NgR and the levels of binding were categorized as ++ (WT level), + (weaker than wild type), tr (trace binding), − (no binding), N/A (not determined). NgR mutant proteins were also subjected to SDS-PAGE and probed by anti-NgR antibodies. Mutants with expression level similar to WT NgR were labeled as “y”.
For the molecule B1, the MAG result is “++”.

Turning to B2, the MAG entry is recorded as “−”.

Another assay has as its target T1, AP-B4C. Nature of the assay: Binding of AP-B4C to COS-7 cells expressing NgR mutants. Further details: key: ++: WT level; +: weaker than wild type; trace binding; −: no binding. As to conditions: AP-B4C 10 nM; level of binding compared to wild type NgR. As for the experimental part: as §1, §2, §3, §4, §5
For the molecule B1, the B4C entry is recorded as “++”.

With B3, the B4C result is reported as “++”.

Consider B2, for which the B4C entry is “++”.

In a further assay the test system is AP-B4C66. Nature of the assay: Binding of AP-B4C66 to COS-7 cells expressing NgR mutants. The note with it: AP-B4C66 0.5 nM; level of binding compared to wild type NgR. The arrangement: key: ++: WT level; +: weaker than wild type; trace binding; −: no binding. The protocol: as §1, §2, §3, §4, §5
Consider B1, for which the B4C-66 entry is given as “++”.

B3: the B4C-66 entry is listed as “++”.

With B2, the B4C-66 entry is recorded as “++”.

The next assay deals with T2, AP-Nogo66. The experiment in a line: Binding of AP-Nogo66 to COS-7 cells expressing NgR mutants. The arrangement: key: ++: WT level; +: weaker than wild type; trace binding; −: no binding. As to conditions: AP-Ng66 5 nM; level of binding compared to wild type NgR. As for the experimental part:
as §1, §2, §3, §4, §5
B1: the Ng66 result is “++”.

In the case of B3, the Ng66 result is reported as “++”.

In the case of B2, the Ng66 result is “++”.

For a further assay, the system named is NgR ligands. Nature of the assay: Binding of alanine substituted NgR mutants to NgR ligands, summary categories. As to conditions: AP-Nogo66, AP-B4C, AP-B4C66, AP-Lingo-1, AP-OMgp and AP-MAG; compared to wild type NgR. The method in brief:
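AP-fused ligands (Nogo66, B4C, B4C66, Lingo-1, OMgp, MAG) were assayed against 74 Ala-substitution mutants of human NgR1 targeting surface charged patches, glycosylation sites and predicted binding regions, plus the D259N variant. Outcomes were grouped into categories: binding lost for all ligands, retained for all, or ligand-selective.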
As for B4, the “ligand binding category of NgR mutant (Table II)” value (from here on “ligand binding category”) was “Binding to all ligands”.

On to B3, for which the “ligand binding category” value is “Differential binding”.

Take B2: the “ligand binding category” value is given as “Differential binding”.

For the molecule B5, the “ligand binding category” value is listed as “Binding to all ligands”.

Consider B6, for which the “ligand binding category” value was “Binding to all ligands”.

For B7, the “ligand binding category” value was “Binding to all ligands”.

For the molecule B8, the “ligand binding category” value is recorded as “Binding to all ligands”.

Another assay relates to AP-OMgp. The experiment in a line: Binding of AP-OMgp to COS-7 cells expressing NgR mutants. As to conditions: AP-OMGP 10 nM; level of binding compared to wild type NgR. The arrangement: key: ++: WT level; +: weaker than wild type; trace binding; −: no binding. As for the experimental part:
as §1, §2, §3, §4, §5
For B1, the OMgp result is recorded as “++”.

Turning to B3, the OMgp entry is “++”.

Consider B2, for which the OMgp result is recorded as “+”.

Another assay deals with T3, AP-Lingo-1. The experiment in a line: Binding of AP-Lingo-1 to COS-7 cells expressing NgR mutants. The note with it: AP-Lingo-1 10 nM; level of binding compared to wild type NgR. Further details: key: ++: WT level; +: weaker than wild type; trace binding; −: no binding. The protocol:
as §1, §2, §3, §4, §5
Turning to B1, the Lingo-1 result is “++”.

For B3, the Lingo-1 entry is on record as “tr”.

In the case of B2, the Lingo-1 entry is recorded as “++”.
